# From article PMC9169775, “Structural conservation among variants of the SARS-CoV-2 spike postfusion bundle” (Proceedings of the National Academy of Sciences of the …, 2022)
# B1: Dps4 from Nostoc punctiforme (NpDps4), scaffold alone (natural protein)
# chain: ETQTLLRNFGNVYDNPVLLDRSVTAPVTEGFNVVLASFQALYLQYQKHHFVVEGSEFYSLHEFFNESYNQVQDHIHEIGERLDGLGGVPVATFSKLAELTCFEQESEGVYSSRQMVENDLAAEQAIIGVIRRQAAQAESLGDRGTRYLYEKILLKTEERAYHLSHFLAKDSLTLGFVQAA
# notes: Dps4 from Nostoc punctiforme (NpDps4); Construct details in SI Appendix, Supplementary Notes; also called the scaffold alone; source: E. coli BL21(DE3), purified (Ni-NTA, SEC); copies: 12
# Biological target: the molecule itself
# Test: SDS-PAGE with or without boiling (SDS-resistant oligomer); purified scaffolded HR1HR2 bundle and scaffold alone, with or without boiling
protein,measurement,value
B1,stoichiometry N,12
